Consider 4 molecules from patent US20250215091A1, “Anti-GAL3 Antibodies and Compositions” (Les Laboratoires Servier, priority 2022, published 2025).

Changes are numbered by the printed parent chain.

The target in test [1] is T1, full length mouse Galectin-3 (mouse, UniProt P16110 2-264).
T1 construct: Printed as 'full length'; recombinant, immobilized through a histidine tag; also called m-Gal3-FL; murine Gal3
The test is described as follows: ratio of the ELISA EC50 values on Hu-Gal3-FL and m-Gal3-FL. As to the method: (§1) To determine the half maximal effective concentration (EC50) of the antibodies, ELISA dose-response experiments were performed on Hu-Gal3-FL and on m-Gal3-FL.
(§2) Hu-Gal3-FL and m-Gal3-FL were immobilized at 3 μg/mL through their His-tag on functionalized microplates as before. A 3.3-fold serial dilution was carried-out with the purified IgGs, added to the wells containing immobilized Hu-Gal3-FL or m-Gal3-FL and detected with an anti-Fab.HRP antibody.

Test [2] has as its target T2, CRD domain of human Galectin-3 (human, UniProt P17931 106-250).
T2 construct: Histidine-tagged; also called hu-Gal3-CRD; Hu-Gal3-CRD
Put plainly: competitive ELISA, inhibition of ASF binding to immobilized Hu-Gal3-CRD. As to the method:
The inhibitory properties and IC50 of the anti-Gal3 antibodies were determined in an ELISA competitive assay by measuring the binding of ASF to immobilized CRD domain of human Gal3 in absence or presence of the antibodies at different concentrations.
The inhibition assay was performed on Hu-Gal3-CRD which was immobilized at 1 μg/mL through its His-tag on functionalized microplates. A 2-fold or 3-fold serial dilution was carried-out with the purified IgGs and added to the wells with immobilized Hu-Gal3-CRD. ASF (A1908-Sigma reference) was added at 8 μg/mL in each well with or without IgGs. ASF binding to Hu-Gal3-CRD was detected with the HRP-labeled anti-ASF sheep antibody. IC50 were estimated according to the model equation Y=Bottom+(Top−Bottom)/(1+(X/IC50)). Indicative maximal percentages of inhibition were obtained with the formula: 100%−(((mean of bottom plateau values of IgGs)×100%)/mean of irrelevant IgG values)
A general note: An ELISA detects its analyte on a solid surface through an enzyme-linked reagent.

Test [3] has as its target T3, full length human Galectin-3 (human, UniProt P17931 2-250).
T3 construct: Printed as 'full length'; recombinant, immobilized through a histidine tag; also called hu-Gal3-FL; Hu-Gal3-FL
Put plainly: SPR Biacore T-200, antibody captured by anti-human Fc, Gal3 in solution. As to the method: (§3) The CM5 sensor surface was first immobilized with an anti-human Fc mAb using a standard protocol. The entire sensor surface was first activated by injecting a 1:1 (v/v) mixture of 400 mM EDC and 100 mM NHS at a flow rate of 10 μL/minute for 7 minutes. Monoclonal anti-human Fc antibody (Millipore AP113), 25 μg/mL in Na acetate pH5, 360 s were flowed at 10 μL/minute to reach 10000 RU on both flow cells followed by the injection of 1 M ethanolamine, pH8.5 for 7 minutes at a flow rate of 10 μL/minute. During the entire immobilization procedure, HBS-P was used as the running buffer.
(§4) Antibody samples were prepared at 5 μg/ml and were injected for 30 seconds at 10 μL/minute. In general, 400 to 680 resonance units of antibodies were captured on the chip.
In general terms: Surface plasmon resonance follows binding to a sensor surface in real time, without labels.

Test [4] has as its target T1, full length mouse Galectin-3. The test is described as above. How it is done:
as §3, §4

The target in test [5] is T4, human full-length Galectin-1 (human, UniProt P09382 2-135).
T4 construct: full-length; Histidine-tagged; also called Hu-Gall; Gall
T4 sequence (P09382 2-135 limits assumed): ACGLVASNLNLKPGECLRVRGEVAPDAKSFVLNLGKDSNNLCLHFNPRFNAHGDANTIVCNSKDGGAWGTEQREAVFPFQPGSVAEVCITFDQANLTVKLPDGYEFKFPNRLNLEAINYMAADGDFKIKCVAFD
The test is described as follows: ELISA on immobilised antigen (3 µg/mL), purified IgG at 15-20 µg/mL, anti-Fab.HRP, OD 450 nm. As to the method:
(§5) IgG specificity to Gal3 was tested by checking the absence of binding on human Gall and Gal7 by ELISA.
(§6) Hu-Gall and Hu-Gal7 were immobilized at 3 μg/mL. Purified IgGs were added into the wells (15-20 μg/mL final concentration) and detected with an anti-Fab.HRP antibody. Rabbit antibodies directed against Gall (Abcam ab25138 reference) and Gal7 (Abcam ab108623 reference) were used at 5 μg/mL as antigen-coating positive controls and detected with an anti-rabbit.HRP secondary antibody (7074S-Cell Signaling reference).

In test [6] the target is T5, human full-length Galectin-7 (human, UniProt P47929 1-136).
T5 construct: full-length; Histidine-tagged; also called Hu-Gal7; Gal7
T5 sequence (P47929 whole entry): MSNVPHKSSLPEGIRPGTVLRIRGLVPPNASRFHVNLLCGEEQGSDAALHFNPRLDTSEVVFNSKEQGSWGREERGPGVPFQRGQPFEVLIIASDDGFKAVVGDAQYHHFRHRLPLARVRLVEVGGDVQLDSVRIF
The description is as above. As to the method: as §5, §6

In test [7] the target is T1, full length mouse Galectin-3. The test is described as follows: dose-response ELISA on immobilized m-Gal3-FL, IgG. As to the method:
as §1, §2

Test [8] deals with T3, full length human Galectin-3. The test is described as follows: dose-response ELISA on immobilized Hu-Gal3-FL, IgG. How it is done:
as §1, §2

T2 sequence (P17931 106-250 limits assumed): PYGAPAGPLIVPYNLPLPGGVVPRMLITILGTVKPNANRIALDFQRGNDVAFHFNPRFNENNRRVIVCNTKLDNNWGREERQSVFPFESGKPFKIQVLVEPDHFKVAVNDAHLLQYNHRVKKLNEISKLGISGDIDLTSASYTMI
T3 sequence (P17931 2-250 limits assumed): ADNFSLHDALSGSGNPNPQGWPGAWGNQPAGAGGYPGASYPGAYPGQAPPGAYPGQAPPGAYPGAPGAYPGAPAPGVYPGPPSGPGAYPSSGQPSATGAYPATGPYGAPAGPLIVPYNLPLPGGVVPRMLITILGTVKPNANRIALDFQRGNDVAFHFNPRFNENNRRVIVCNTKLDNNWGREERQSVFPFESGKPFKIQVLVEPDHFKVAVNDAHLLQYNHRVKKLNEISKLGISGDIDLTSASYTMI
T1 sequence (P16110 2-264 limits assumed): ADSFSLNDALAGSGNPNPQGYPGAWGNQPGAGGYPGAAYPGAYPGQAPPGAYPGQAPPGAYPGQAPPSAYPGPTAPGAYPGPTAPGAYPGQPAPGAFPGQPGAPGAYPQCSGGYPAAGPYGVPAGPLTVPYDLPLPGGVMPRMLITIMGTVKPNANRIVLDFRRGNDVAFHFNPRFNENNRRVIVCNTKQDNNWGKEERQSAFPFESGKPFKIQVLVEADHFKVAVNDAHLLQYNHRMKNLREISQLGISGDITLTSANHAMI

B1: anti-Gal3 antibody H07 (antibody, V domains shown)
VH: EVQLVESGGSLVKPGGSLRLSCAASGFTFSNYNMNWVRQAPGKGLEWISNIDGSSRYIYYADFVKGRFTISRDNAKNSLYLQMNSLRAEDTAVYYCVRSYYGGMDVWGRGTLVTVSS
VL: QSVLTQPASVSGSPGQSITISCAGTSSDVGGYYNVAWYQQHPGKAPKLMIYYDSYRPSGVSNRFSGSKSGNTASLTISGLQAEDEADYYCSSSTGYSTRVFGGGTKLEIK
As to B1, in test [1], the “Ratio (Human/mouse Gal3 EC50 ratio)” value came out at 37. Besides, the IC50 (as a rule, the midpoint of a concentration-inhibition curve) in test [2] worked out at 6 nM. This molecule showed a Max % inhibition in test [2] of 74%. Moreover, the Kd (as a rule, a measure of binding affinity in units of concentration) is 5.65 nM in test [3] and 4.86 nM in test [4]. Moreover, the binding result in test [5] and in test [6] was “no binding (tested: 15-20 µg/mL)” in each case. The EC50 (in general, the concentration at which the effect is half-maximal) in test [7] worked out at 88 nM; in test [8] it was 2.4 nM.

B2: anti-Gal3 antibody E02 (antibody, V domains shown)
VH: EVQLVESGGSLVKPGGSLRLSCAASGFTFSNYAMNWVRQAPGKGLEWISSIYGSSRSISYADFVKGRFTISRDNAKNSLYLQMNSLRAEDTAVYYCVRSSYNYYYGNGMDVWGRGTLVTVSS
VL: B1 VL with Y33G, N34G, A36S, G95S
Consider B2, for which the “Ratio (Human/mouse Gal3 EC50 ratio)” value in test [1] is 2. In addition, in test [2], the half-maximal inhibitory concentration (IC50) was determined as 5.2 nM. The molecule further came in with a Max % inhibition in test [2] of 65%. Also, the results for the Kd in test [3] and in test [4] were 7.38 nM and 4.13 nM, respectively. Moreover, the binding result in test [5] and in test [6] was “no binding (tested: 15-20 µg/mL)” in each case. The EC50 was 76 nM in test [7] and 34 nM in test [8].

B3: anti-Gal3 antibody E01 (antibody, V domains shown)
VH: EVQLVESGGSLVKPGGSLRLSCAASGFTFSNNYMNWVRQAPGKGLEWISNINGASRNIAYADFVKGRFTISRDNAKNSLYLQMNSLRAEDTAVYYCVRSSDYDGGMDVWGRGTLVTVSS
VL: B1 VL with Y32N, Y33S, N34Y, A36S, G95Y, Y96G
For the molecule B3, the “Ratio (Human/mouse Gal3 EC50 ratio)” value in test [1] came out at 2. The IC50 in test [2] was 3.2 nM. Also, in test [2], the Max % inhibition came to 63%. Moreover, the dissociation constant (Kd) amounted to 6.26 nM in test [3] and 7.81 nM in test [4]. Moreover, the binding result in test [5] and in test [6] was “no binding (tested: 15-20 µg/mL)” throughout. The EC50 was determined as 25.9 nM in test [7] and 14.3 nM in test [8].

B4: anti-Gal3 antibody G03 (antibody, V domains shown)
VH: B1 VH with N33A, N50S, D52Y, Y101N
VL: B1 VL
As for B4, the “Ratio (Human/mouse Gal3 EC50 ratio)” value in test [1] stood at 26. For the same molecule, the IC50 in test [2] stood at 1.8 nM. The same molecule had a Max % inhibition in test [2] of 83%. Besides, the Kd turned out to be 6 nM in test [3] and 4.53 nM in test [4]. The binding result in test [5] and in test [6] was “no binding (tested: 15-20 µg/mL)” throughout. The EC50 in test [7] came to 13.6 nM; in test [8], 0.52 nM.
